In publication PMC7508628, “Targeting the Respiratory Syncytial Virus N^0-P Complex with Constrained α-Helical Peptides in Cells and Mice” (Antimicrobial Agents and Chemotherapy, 2020):
Where a SMILES comes first, the peptide text is derived from it. Bridges are numbered along the chain shown (N, C = ends). [ ]: non-standard residue; d: D form. R8 = C=CCCCCCC[C@@](C)(N)C(=O)O; R5 = C=CCCC[C@@](C)(N)C(=O)O; S5 = C=CCCC[C@](C)(N)C(=O)O

Legend:
circular dichroism = conditions: 10 mM phosphate; pH 7.5; 25 °C; 50 uM
[1] = Circular dichroism spectroscopy, α-helical content; type: physicochemical; conditions: CD, 10 mM phosphate buffer pH 7.5, 50 μM peptide, 25°C, calculated from ellipticity at 222 nm; average of three measurements
Description: The α-helical stabilization appeared to be higher for the i, i + 7 staples overall.
The circular dichroism spectra were acquired on a Chirascan spectropolarimeter. The samples were prepared in 10 mM phosphate buffer, pH 7.5, at a peptide concentration of 50 μM. Data were recorded at 25°C by step scan from 180 nm to 260 nm in a 0.5-mm-pathlength quartz cell using 0.2-nm-wavelength increments, a 1-nm bandwidth, and a response time of 1 s. Each spectrum was an average of three measurements and was subtracted from the buffer baseline. The data were converted to per residue molar ellipticity units (θ; in degrees · square centimeters · decimoles^−1 · number of residues^−1) and smoothed using Igor Pro software. Percent helicity was calculated as follows: (100 × CD222)/(C × N × {40,000 × [1 − (2.5/N)]}), where CD222 is the molar ellipticity (θ) at 222 nm (in millidegrees), N is the number of amino acids in the peptide, and C is the peptide molar concentration (in moles per liter).

rHRSV-mCherry = conditions: read-out: EC50 (half-maximal response inhibitory concentration), inhibition of RSV infection; HEp-2 cells, MOI 0.2, peptides added after 2 h infection, mCherry fluorescence at 48 h postinfection; duplicates

`CC[C@H](C)[C@@H]1NC(=O)[C@H](CO)NC(=O)[C@H](CCC(=O)O)NC(=O)[C@H](CC(C)C)NC(=O)[C@H](Cc2ccccc2)NC(=O)[C@](C)(NC(=O)[C@@H](NC(=O)[C@H](C)NC(=O)[C@H](CCCCN)NC(=O)[C@H](CC(N)=O)NC(=O)[C@H](CC(N)=O)NC(=O)[C@H](C)NC(=O)[C@H](CC(=O)O)NC(=O)[C@H](CCC(=O)O)NC(C)=O)[C@@H](C)O)CCCCCCC=CCCC[C@@](C)(C(=O)N[C@@H](CCCCN)C(=O)N[C@@H](Cc2ccccc2)C(=O)N[C@@H](C)C(=O)N[C@@H](CO)C(N)=O)NC(=O)[C@H](CCCCN)NC1=O` (Ac-EDANNKAT[R8]FLESIK[S5]KFAS-NH2; staple 9-16) showed a helicity (circular dichroism) of 96%.

For `CC[C@H](C)[C@H](NC(=O)[C@H](CO)NC(=O)[C@]1(C)CCCC=CCCC[C@](C)(NC(=O)[C@H](C)NC(=O)[C@H](CCCCN)NC(=O)[C@H](CC(N)=O)NC(=O)[C@H](CC(N)=O)NC(=O)[C@H](C)NC(=O)[C@H](CC(=O)O)NC(=O)[C@H](CCC(=O)O)NC(C)=O)C(=O)N[C@@H](CCCCN)C(=O)N[C@@H](Cc2ccccc2)C(=O)N[C@@H](CC(C)C)C(=O)N1)C(=O)N[C@@H](CCCCN)C(=O)NCC(=O)N[C@@H](CCCCN)C(=O)N[C@@H](Cc1ccccc1)C(=O)N[C@@H](C)C(=O)N[C@@H](CO)C(N)=O` (Ac-EDANNKA[S5]KFL[S5]SIKGKFAS-NH2; staple 8-12), the helicity (circular dichroism) was 31%.

With `CC[C@H](C)[C@H](NC(=O)[C@]1(C)CCCC=CCCCCCC[C@@](C)(NC(=O)[C@H](CC(N)=O)NC(=O)[C@H](CC(N)=O)NC(=O)[C@H](C)NC(=O)[C@H](CC(=O)O)NC(=O)[C@H](CCC(=O)O)NC(C)=O)C(=O)N[C@@H](C)C(=O)N[C@@H]([C@@H](C)O)C(=O)N[C@@H](CCCCN)C(=O)N[C@@H](Cc2ccccc2)C(=O)N[C@@H](CC(C)C)C(=O)N[C@@H](CCC(=O)O)C(=O)N1)C(=O)N[C@@H](CCCCN)C(=O)NCC(=O)N[C@@H](CCCCN)C(=O)N[C@@H](Cc1ccccc1)C(=O)N[C@@H](C)C(=O)N[C@@H](CO)C(N)=O` (Ac-EDANN[R8]ATKFLE[S5]IKGKFAS-NH2; staple 6-13) the helicity (circular dichroism) was 36.5%.

Work on `CC[C@H](C)[C@H](NC(=O)[C@H](CO)NC(=O)[C@]1(C)CCCC=CCCCCCC[C@@](C)(NC(=O)[C@H](CC(N)=O)NC(=O)[C@H](C)NC(=O)[C@H](CC(=O)O)NC(=O)[C@H](CCC(=O)O)NC(C)=O)C(=O)N[C@@H](CCCCN)C(=O)N[C@@H](C)C(=O)N[C@@H]([C@@H](C)O)C(=O)N[C@@H](CCCCN)C(=O)N[C@@H](Cc2ccccc2)C(=O)N[C@@H](CC(C)C)C(=O)N1)C(=O)N[C@@H](CCCCN)C(=O)NCC(=O)N[C@@H](CCCCN)C(=O)N[C@@H](Cc1ccccc1)C(=O)N[C@@H](C)C(=O)N[C@@H](CO)C(N)=O` (Ac-EDAN[R8]KATKFL[S5]SIKGKFAS-NH2; staple 5-12) yielded a helicity (circular dichroism) of 64.6%.

For `CC[C@H](C)[C@H](NC(=O)[C@H](CO)NC(=O)[C@]1(C)CCCC=CCCC[C@@](C)(NC(=O)[C@@H](NC(=O)[C@H](C)NC(=O)[C@H](CCCCN)NC(=O)[C@H](CC(N)=O)NC(=O)[C@H](CC(N)=O)NC(=O)[C@H](C)NC(=O)[C@H](CC(=O)O)NC(=O)[C@H](CCC(=O)O)NC(=O)CNC(=O)[C@H](Cc2c[nH]cn2)NC(=O)[C@H](Cc2ccccc2)NC(=O)[C@H](CCC(=O)O)NC(C)=O)[C@@H](C)O)C(=O)N[C@@H](Cc2ccccc2)C(=O)N[C@@H](CC(C)C)C(=O)N1)C(=O)N[C@@H](CCCCN)C(=O)N[C@]1(C)CCCC=CCCC[C@@](C)(C(=O)N[C@@H](CO)C(N)=O)NC(=O)[C@H](Cc2ccccc2)NC(=O)[C@H](CCCCN)NC1=O` [1c1f] (Ac-EFHGEDANNKAT[R5]FL[S5]SIK[R5]KF[S5]S-NH2; staple 13-16, 20-23), the “% helicity” value [1] was 39.2% and the EC50 (rHRSV-mCherry) was greater than 100 µM.

With `CC[C@H](C)[C@H](NC(=O)[C@H](CO)NC(=O)[C@H](CCC(=O)O)NC(=O)[C@H](CC(C)C)NC(=O)[C@H](Cc1ccccc1)NC(=O)[C@]1(C)CCCC=CCCC[C@](C)(NC(=O)[C@H](CC(N)=O)NC(=O)[C@H](C)NC(=O)[C@H](CC(=O)O)NC(=O)[C@H](CCC(=O)O)NC(C)=O)C(=O)N[C@@H](CCCCN)C(=O)N[C@@H](C)C(=O)N[C@@H]([C@@H](C)O)C(=O)N1)C(=O)N[C@@H](CCCCN)C(=O)NCC(=O)N[C@@H](CCCCN)C(=O)N[C@@H](Cc1ccccc1)C(=O)N[C@@H](C)C(=O)N[C@@H](CO)C(N)=O` [2a] (Ac-EDAN[S5]KAT[S5]FLESIKGKFAS-NH2; staple 5-9) the “% helicity” value [1] was 17.9% and the helicity (circular dichroism) was 17.9%.

For `CC[C@H](C)[C@H](NC(=O)[C@H](CO)NC(=O)[C@]1(C)CCCC=CCCC[C@](C)(NC(=O)[C@H](C)NC(=O)[C@H](CCCCN)NC(=O)[C@H](CC(N)=O)NC(=O)[C@H](CC(N)=O)NC(=O)[C@H](C)NC(=O)[C@H](CC(=O)O)NC(=O)[C@H](CCC(=O)O)NC(=O)CNC(=O)[C@H](Cc2c[nH]cn2)NC(=O)[C@H](Cc2ccccc2)NC(=O)[C@H](CCC(=O)O)NC(C)=O)C(=O)N[C@@H](CCCCN)C(=O)N[C@@H](Cc2ccccc2)C(=O)N[C@@H](CC(C)C)C(=O)N1)C(=O)N[C@@H](CCCCN)C(=O)N[C@]1(C)CCCC=CCCC[C@@](C)(C(=O)N[C@@H](CO)C(N)=O)NC(=O)[C@H](Cc2ccccc2)NC(=O)[C@H](CCCCN)NC1=O` [2b1f] (Ac-EFHGEDANNKA[S5]KFL[S5]SIK[R5]KF[S5]S-NH2; staple 12-16, 20-23), the “% helicity” value [1] was 37.6% and the EC50 (rHRSV-mCherry) was 41 ± 0.5 µM.

For `CC[C@H](C)[C@H](NC(=O)[C@]1(C)CCCC=CCCC[C@](C)(NC(=O)[C@@H](NC(=O)[C@H](C)NC(=O)[C@H](CCCCN)NC(=O)[C@H](CC(N)=O)NC(=O)[C@H](CC(N)=O)NC(=O)[C@H](C)NC(=O)[C@H](CC(=O)O)NC(=O)[C@H](CCC(=O)O)NC(C)=O)[C@@H](C)O)C(=O)N[C@@H](Cc2ccccc2)C(=O)N[C@@H](CC(C)C)C(=O)N[C@@H](CCC(=O)O)C(=O)N1)C(=O)N[C@@H](CCCCN)C(=O)NCC(=O)N[C@@H](CCCCN)C(=O)N[C@@H](Cc1ccccc1)C(=O)N[C@@H](C)C(=O)N[C@@H](CO)C(N)=O` [2c] (Ac-EDANNKAT[S5]FLE[S5]IKGKFAS-NH2; staple 9-13), the “% helicity” value [1] was 16.8% and the helicity (circular dichroism) was 16.8%.

With `CC[C@H](C)[C@@H]1NC(=O)[C@](C)(NC(=O)[C@H](CCC(=O)O)NC(=O)[C@H](CC(C)C)NC(=O)[C@H](Cc2ccccc2)NC(=O)[C@H](CCCCN)NC(=O)[C@@H](NC(=O)[C@H](C)NC(=O)[C@H](CCCCN)NC(=O)[C@H](CC(N)=O)NC(=O)[C@H](CC(N)=O)NC(=O)[C@H](C)NC(=O)[C@H](CC(=O)O)NC(=O)[C@H](CCC(=O)O)NC(C)=O)[C@@H](C)O)CCCCCCC=CCCC[C@@](C)(C(N)=O)NC(=O)[C@H](C)NC(=O)[C@H](Cc2ccccc2)NC(=O)[C@H](CCCCN)NC(=O)CNC(=O)[C@H](CCCCN)NC1=O` [3e] (Ac-EDANNKATKFLE[R8]IKGKFA[S5]-NH2; staple 13-20) the “% helicity” value [1] was 19.9% and the helicity (circular dichroism) was 19.9%.
